Experiments:
[1] = target: T1, human CD3 (on human Pan-T cells or donor PBMC) (human, UniProt P07766 23-207; P04234 22-171; P09693 23-182; P20963 22-164); assay: cell-based or functional assay
[2] = target: T1, human CD3 (on human Pan-T cells or …); assay: cell-based or functional assay; remark: listed apart in the source

T1 sequence (P07766 23-207, chain 1 of 4): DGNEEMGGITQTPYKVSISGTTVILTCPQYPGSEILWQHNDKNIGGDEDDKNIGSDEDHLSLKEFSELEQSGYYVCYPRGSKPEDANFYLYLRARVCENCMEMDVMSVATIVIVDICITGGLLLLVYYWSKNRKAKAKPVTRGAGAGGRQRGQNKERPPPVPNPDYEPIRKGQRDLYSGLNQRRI
T1 sequence (P04234 22-171, chain 2 of 4): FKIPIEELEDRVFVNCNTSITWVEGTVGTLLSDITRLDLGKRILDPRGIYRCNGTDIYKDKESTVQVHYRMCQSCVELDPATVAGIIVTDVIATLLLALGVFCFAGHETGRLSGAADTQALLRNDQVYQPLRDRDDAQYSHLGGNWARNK
T1 sequence (P09693 23-182, chain 3 of 4): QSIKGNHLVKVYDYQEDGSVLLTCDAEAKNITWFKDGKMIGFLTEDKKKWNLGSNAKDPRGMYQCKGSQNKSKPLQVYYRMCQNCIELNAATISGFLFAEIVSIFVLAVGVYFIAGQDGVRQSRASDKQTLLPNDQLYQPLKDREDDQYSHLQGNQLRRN
T1 sequence (P20963 22-164, chain 4 of 4): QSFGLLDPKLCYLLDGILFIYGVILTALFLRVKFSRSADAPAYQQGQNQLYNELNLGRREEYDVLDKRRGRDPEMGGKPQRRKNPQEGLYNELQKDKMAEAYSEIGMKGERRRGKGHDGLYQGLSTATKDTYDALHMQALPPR

| RTCC Assay, Donor 0, EC50 [1] [nM] | RTCC Assay, Donor 0, gMFI max [1] [gMFI] | RTCC Assay, Donor 1, EC50 [1] [nM] | RTCC Assay, Donor 1, gMFI max [1] [gMFI] | RTCC Assay, Donor 2, EC50 [1] [nM] | RTCC Assay, Donor 2, gMFI max [1] [gMFI] | RTCC Assay, Donor 3, EC50 [1] [nM] | RTCC Assay, Donor 3, gMFI max [1] [gMFI] | Cytokine Release Assay (IFNγ), Donor 0, EC50 [2] [nM] | Cytokine Release Assay (IFNγ), Donor 0, gMFI max [2] [gMFI] | Cytokine Release Assay (IFNγ), Donor 1, gMFI max [2] [gMFI] | Cytokine Release Assay (IFNγ), Donor 2, EC50 [2] [nM] | Cytokine Release Assay (IFNγ), Donor 2, gMFI max [2] [gMFI] | Cytokine Release Assay (IFNγ), Donor 3, gMFI max [2] [gMFI] | Cytokine Release Assay (IFNγ), Donor 3, EC50 [2] [nM] | Cytokine Release Assay (IFNγ), Donor 1, EC50 [2] [nM] | Binder |
| --- | --- | --- | --- | --- | --- | --- | --- | --- | --- | --- | --- | --- | --- | --- | --- | --- |
| 0.03 | 23300 | 0.004 | 76100 | 0.012 | 55900 | 0.02 | 86700 | 0.096 | 1.39e+06 | 4630 | 0.0684 | 26900 | 290000 | – | – | CD3 × CD33-BspAb45 (bispecific antibody) chain 1: EVQLVESGGGLVQPGGSLRLSCAASGFTFSRYSMNWVRQAPGKCLEWVSYISSSSSSIYYADSVKGRFTISRDNAKNSLYLQMNSLRDEDTAVYYCARDRRATLDYWGQGTLVTVSSGGGGSGGGGSGGGGSGGGGSNFMLTQPHSVSESPGKTVTISCTRSSGSIASNYVQWYQQRPGSSPTTVIYEDNQRPSGVPDRFSGSIDSSSNSASLTISGLKTEDEADYYCQSYDSSNHVFGCGTKLTVLDKTHTCPPCPAPEFEGGPSVFLFPPKPKDTLMISRTPEVTCVVVDVSHEDPEVKFNWYVDGVEVHNAKTKPREEQYNSTYRVVSVLTVLHQDWLNGKEYKCKVSNKALPASIEKTISKAKGQPREPQVYTLPPCREEMTKNQVSLWCLVKGFYPSDIAVEWESNGQPENNYKTTPPVLDSDGSFFLYSKLTVDKSRWQQGNVFSCSVMHEALHNHYTQKSLSLSPGK chain 2: EVQLVQSGAEVKKPGSSVKVSCKASGYTITDSNIHWVRQAPGQSLEWIGYIYPYNGGTDYNQKFKNRATLTVDNPTNTAYMELSSLRSEDTAFYYCVNGNPWLAYWGQGTLVTVSSASTKGPSVFPLAPSSKSTSGGTAALGCLVKDYFPEPVTVSWNSGALTSGVHTFPAVLQSSGLYSLSSVVTVPSSSLGTQTYICNVNHKPSNTKVDKRVEPKSCDKTHTCPPCPAPEFEGGPSVFLFPPKPKDTLMISRTPEVTCVVVDVSHEDPEVKFNWYVDGVEVHNAKTKPREEQYNSTYRVVSVLTVLHQDWLNGKEYKCKVSNKALPASIEKTISKAKGQPREPQVCTLPPSREEMTKNQVSLSCAVKGFYPSDIAVEWESNGQPENNYKTTPPVLDSDGSFFLVSKLTVDKSRWQQGNVFSCSVMHEALHNRFTQKSLSLSPGK chain 3: DIQLTQSPSTLSASVGDRVTITCRASESLDNYGIRFLTWFQQKPGKAPKLLMYAASNQGSGVPSRFSGSGSGTEFTLTISSLQPDDFATYYCQQTKEVPWSFGQGTKVEVKRTVAAPSVFIFPPSDEQLKSGTASVVCLLNNFYPREAKVQWKVDNALQSGNSQESVTEQDSKDSTYSLSSTLTLSKADYEKHKVYACEVTHQGLSSPVTKSFNRGEC |
| 2.92 | 29700 | 0.937 | 65800 | 1.85 | 53900 | 2.33 | 75900 | 12.9 | 1.25e+06 | 7650 | 22.9 | 28300 | 379000 | 52.6 | – | CD3 × CD33-BspAb66 (bispecific antibody, human IgG1, kappa) scFv: EVQLVESGGGLVQPGRSLRLSCAASGFTFDDYAMHWVRQAPGKGLEWVSGISWNSGSIGYADSVKGRFTISRDNAKNSLYLQMNSLRAEDTALYYCAKDSRGYGDYRLGGAYWGQGTLVTVSSGGGGSGGGGSGGGGSGGGGSEIVMTQSPATLSVSPGERATLSCRASQSVSSNLAWYQQKPGQAPRLLIYGASTRATGIPARFSGSGSGTEFTLTISSLQSEDFAVYYCQQYNNWPWTFGQGTKVEIKTSGPGGPDKTHTCPPCPAPEFEGGPSVFLFPPKPKDTLMISRTPEVTCVVVDVSHEDPEVKFNWYVDGVEVHNAKTKPREEQYNSTYRVVSVLTVLHQDWLNGKEYKCKVSNKALPASIEKTISKAKGQPREPQVYTLPPCREEMTKNQVSLWCLVKGFYPSDIAVEWESNGQPENNYKTTPPVLDSDGSFFLYSKLTVDKSRWQQGNVFSCSVMHEALHNHYTQKSLSLSPGK heavy: EVQLVQSGAEVKKPGSSVKVSCKASGYTITDSNIHWVRQAPGQSLEWIGYIYPYNGGTDYNQKFKNRATLTVDNPTNTAYMELSSLRSEDTAFYYCVNGNPWLAYWGQGTLVTVSSASTKGPSVFPLAPSSKSTSGGTAALGCLVKDYFPEPVTVSWNSGALTSGVHTFPAVLQSSGLYSLSSVVTVPSSSLGTQTYICNVNHKPSNTKVDKRVEPKSCDKTHTCPPCPAPEFEGGPSVFLFPPKPKDTLMISRTPEVTCVVVDVSHEDPEVKFNWYVDGVEVHNAKTKPREEQYNSTYRVVSVLTVLHQDWLNGKEYKCKVSNKALPASIEKTISKAKGQPREPQVCTLPPSREEMTKNQVSLSCAVKGFYPSDIAVEWESNGQPENNYKTTPPVLDSDGSFFLVSKLTVDKSRWQQGNVFSCSVMHEALHNRFTQKSLSLSPGK light: DIQLTQSPSTLSASVGDRVTITCRASESLDNYGIRFLTWFQQKPGKAPKLLMYAASNQGSGVPSRFSGSGSGTEFTLTISSLQPDDFATYYCQQTKEVPWSFGQGTKVEVKRTVAAPSVFIFPPSDEQLKSGTASVVCLLNNFYPREAKVQWKVDNALQSGNSQESVTEQDSKDSTYSLSSTLTLSKADYEKHKVYACEVTHQGLSSPVTKSFNRGEC |
| 5.21 | 16200 | 0.762 | 57800 | 2.28 | 37700 | 7.83 | 42700 | – | 6350 | 4220 | – | 4670 | 8060 | 25.4 | – | CD3 × CD33-BspAb52 (bispecific antibody) chain 1: not shown chain 2: EVQLVQSGAEVKKPGSSVKVSCKASGYTITDSNIHWVRQAPGQSLEWIGYIYPYNGGTDYNQKFKNRATLTVDNPTNTAYMELSSLRSEDTAFYYCVNGNPWLAYWGQGTLVTVSSASTKGPSVFPLAPSSKSTSGGTAALGCLVKDYFPEPVTVSWNSGALTSGVHTFPAVLQSSGLYSLSSVVTVPSSSLGTQTYICNVNHKPSNTKVDKRVEPKSCDKTHTCPPCPAPEFEGGPSVFLFPPKPKDTLMISRTPEVTCVVVDVSHEDPEVKFNWYVDGVEVHNAKTKPREEQYNSTYRVVSVLTVLHQDWLNGKEYKCKVSNKALPASIEKTISKAKGQPREPQVCTLPPSREEMTKNQVSLSCAVKGFYPSDIAVEWESNGQPENNYKTTPPVLDSDGSFFLVSKLTVDKSRWQQGNVFSCSVMHEALHNRFTQKSLSLSPGK chain 3: DIQLTQSPSTLSASVGDRVTITCRASESLDNYGIRFLTWFQQKPGKAPKLLMYAASNQGSGVPSRFSGSGSGTEFTLTISSLQPDDFATYYCQQTKEVPWSFGQGTKVEVKRTVAAPSVFIFPPSDEQLKSGTASVVCLLNNFYPREAKVQWKVDNALQSGNSQESVTEQDSKDSTYSLSSTLTLSKADYEKHKVYACEVTHQGLSSPVTKSFNRGEC |
| 0.2 | 28400 | 0.036 | 66900 | 0.05 | 55800 | 0.085 | 80600 | 0.269 | 1.34e+06 | 10800 | 0.292 | 30600 | 355000 | 0.214 | 15.3 | CD3 × CD33-BspAb51 (bispecific antibody) chain 1: not shown chain 2: EVQLVQSGAEVKKPGSSVKVSCKASGYTITDSNIHWVRQAPGQSLEWIGYIYPYNGGTDYNQKFKNRATLTVDNPTNTAYMELSSLRSEDTAFYYCVNGNPWLAYWGQGTLVTVSSASTKGPSVFPLAPSSKSTSGGTAALGCLVKDYFPEPVTVSWNSGALTSGVHTFPAVLQSSGLYSLSSVVTVPSSSLGTQTYICNVNHKPSNTKVDKRVEPKSCDKTHTCPPCPAPEFEGGPSVFLFPPKPKDTLMISRTPEVTCVVVDVSHEDPEVKFNWYVDGVEVHNAKTKPREEQYNSTYRVVSVLTVLHQDWLNGKEYKCKVSNKALPASIEKTISKAKGQPREPQVCTLPPSREEMTKNQVSLSCAVKGFYPSDIAVEWESNGQPENNYKTTPPVLDSDGSFFLVSKLTVDKSRWQQGNVFSCSVMHEALHNRFTQKSLSLSPGK chain 3: DIQLTQSPSTLSASVGDRVTITCRASESLDNYGIRFLTWFQQKPGKAPKLLMYAASNQGSGVPSRFSGSGSGTEFTLTISSLQPDDFATYYCQQTKEVPWSFGQGTKVEVKRTVAAPSVFIFPPSDEQLKSGTASVVCLLNNFYPREAKVQWKVDNALQSGNSQESVTEQDSKDSTYSLSSTLTLSKADYEKHKVYACEVTHQGLSSPVTKSFNRGEC |

Reference: patent US20260167721A1 (ABLEXIS, published 2026)
